According to paper PMC6995573:
Like-named read-outs stand apart in the source and are kept apart here.

Experiments:
[1] = target: Human ornithine decarboxylase (human) (UniProt P11926)
[2] = target: Human ornithine decarboxylase (human) (UniProt P11926); remark: listed apart in the source
[3] = target: Human ornithine decarboxylase (human) (UniProt P11926); assay: AUC; sedimentation velocity, 20 °C, 30 mM Tris-HCl pH 7.4, 25 mM NaCl; ODC fixed at 0.3 mg/mL, AZ 0.02-0.19 mg/mL (AZ/ODC molar ratio 0.25 to 3); all data sets fitted to the AB hetero-association model in SEDPHAT

Sequence of Human ornithine decarboxylase (human) (P11926 2-421): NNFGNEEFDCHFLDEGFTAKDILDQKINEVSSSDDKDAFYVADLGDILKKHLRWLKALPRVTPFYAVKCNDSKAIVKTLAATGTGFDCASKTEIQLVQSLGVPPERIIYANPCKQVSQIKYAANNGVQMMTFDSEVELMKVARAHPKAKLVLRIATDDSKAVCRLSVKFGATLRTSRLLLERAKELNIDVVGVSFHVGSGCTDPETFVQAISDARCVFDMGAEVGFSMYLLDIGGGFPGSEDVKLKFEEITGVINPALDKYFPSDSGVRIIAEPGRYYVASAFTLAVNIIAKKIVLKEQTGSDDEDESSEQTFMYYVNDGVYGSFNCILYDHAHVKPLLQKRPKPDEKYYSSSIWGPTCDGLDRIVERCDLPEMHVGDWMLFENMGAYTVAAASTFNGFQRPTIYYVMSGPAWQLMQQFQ

| Substance | IC50 of inhibition of ODC enzyme activity by AZ [1] | IC50 of inhibition of ODC enzyme activity by AZ [2] | Kd [3] |
| --- | --- | --- | --- |
| AZ3_A98D (natural protein) | 670 nM |  |  |
| AZ3_D112K (natural protein) | 550 nM |  |  |
| AZ3_D136G (natural protein) | 720 nM |  |  |
| AZ3_D149P (natural protein) | 2050 nM |  |  |
| AZ3_D179N (natural protein) | 450 nM |  |  |
| AZ3_G99D (natural protein) | 780 nM |  |  |
| AZ3_H129N (natural protein) | 670 nM |  |  |
| AZ3_N100R (natural protein) | 660 nM |  |  |
| AZ3_N178K (natural protein) | 670 nM |  |  |
| AZ3_Q150E (natural protein) | 480 nM |  |  |
| AZ3_Q177H (natural protein) | 1340 nM |  |  |
| AZ3_R137G (natural protein) | 1230 nM |  |  |
| AZ3_S124D/Q150E/K166Q/D179N (natural protein) |  | 250 nM | 500 nM |
| AZ3_S127R (natural protein) | 1020 nM |  |  |
| AZ3_T126K (natural protein) | 700 nM |  |  |
| AZ3_Y145G (natural protein) | 980 nM |  |  |

More lines, now with the values ahead:

| IC50 of inhibition of ODC enzyme activity by AZ [1] | IC50 of inhibition of ODC enzyme activity by AZ [2] | Kd [3] | Substance |
| --- | --- | --- | --- |
| 420 nM |  |  | AZ3_K166Q (natural protein) |
| 1380 nM |  |  | AZ3_N168R (natural protein) |
| 650 nM |  |  | AZ3_N175C (natural protein) |
| 810 nM |  |  | AZ3_R138S (natural protein) |
| 500 nM |  |  | AZ3_S124D (natural protein) |
|  | 290 nM | 140 nM | AZ3_S124D/Q150E/K166Q/S171H/D179N (natural protein) |
| 430 nM |  |  | AZ3_S171H (natural protein) |
| 1210 nM |  |  | AZ3_T106E (natural protein) |
